# The DeepSol protein solubility set
# Assay: soluble on expression in E. coli; label from the status in PepcDB or PDB records
row,Sequence,soluble on expression in E. coli
1,MLSDYEEFLRLEKARKIILEILNEKGRDALYDLSGLSGGFLIDEKDKALLNTYIGSSYFAEKVNEYGLKHLGGDENDKCVGFNRTSSAILATILALKPKKVIHYLPELPGHPSIERSCKIVNAKYFESDKVGEILNKIDKDTLVIITGSTMDLKVIELENFKKVINTAKNKEAIVFVDDASGARVRLLFNQPPALKLGADLVVTSTDKLMEGPRGGLLAGKKELVDKIYIEGTKFGLEAQPPLLAGIYRALKNFNLERIRKAFERAKNFDLSKIEKLNKELKAIDDNINIVYERTPTGFVIKRVYKDDTINIKKLIEIGFNLLKNYGIITITVAGMPGASKSLRIDLTSRDAERIDDNYIIKAIVESIKMAFKS,soluble
2,MLSIIIPVYNEKGNILELTSRIKSALKNNEYEIVFVDDSTDETPKIIESLALKYNNIRLKHRKGKKGLSSAVIDGFKLARGDVLSVMDGDLQHPPEMLESMLFQMKKDTDIVICSRFVLGGKEEGLNIFRKFASFIARLIGKIFLKPLRKISDPTAGFFMLKRKVIKNRDLRAIGWKILIEILVMGDYKRVVELPYSFKRRKHEKSKFTISVQGQYLKQIVSLFIRSKKYNIKLEHHHHHH,soluble
3,MLSIKDLHVSVEDKAILRGLSLDVRPGEVHAIMGPNGSGKSTLSATLAGREDYEVTGGTVEFKGKDLLALSPEDRAGEGIFMAFQYPVEIPGVSNQFFLQTALNAVRSYRGQETLDRFDFQDLMEEKIALLKMPEDLLTRSVNVGFSGGEKKRNDILQMAVLEPELCILDESDSGLDIDALKVVADGVNSLRDGKRSFIIVTHYQRILDYIKPDYVHVLYQGRIVKSGDFTLVKQLEEQGYGWLTEQQ,not soluble
4,MLSLNLPVFDTKINVRNGKNVIFDVIRKRYVALTPEEWVRQHFVHFLIAHKGYPNALLANEVMVKLNGTTKRCDTVLYRRDLSARMIVEYKAPHIEITQAVFDQITRYNMVLKVDYLIVSNGMQHYCCRMDYAHQSYTFLQDIPDYNAL,not soluble
5,MLSTIEYLSLLRKYMRENAVKYGISRMGIFGSVARGEQHDGSDVDICVEIDRPSIFTLVHIKEELEKLFKCPVDVVRLRNNMDELLRNCINKDGIYV,not soluble
6,MLSYRHSFHAGNHADVLKHTVQSLIIESLKEKDKPFLYLDTHAGAGRYQLGSEHAERTGEYLEGIARIWQQDDLPAELEAYINVVKHFNRSGQLRYYPGSPLIARQLLREQDSLQLTELHPSDYPLLRSGFQKDSRARVEKADGFQQLKAKLPPVSRRGLILIDPPYEMKTDYQAVVSGIAEGYKRFATGTYALWYPVVLRQQIKRMIHDLEATGIRKILQIELAVLPDSDRRGMTASGMIVINPPWKLEQQMNNVLSWLHSKLVPAGTGHATVSWIVPE,not soluble
7,MLTITQALVDQIVAHARQDHPDEACGVVAGPEGSGRPERFIPMLNAARSPTFYEFDSGDLLKLYREMDDRDEEPVIIYHSHTATEAYPSRTDISYANEPGAHYVLVSTADADDAGPFQFRSFQIVAGEVTEEEVKVVEAYLEHHHHHH,soluble
8,MLTKQPIAKKLNVSADVVWKVVRNIGRLDVWFPIIETCRVEGEGAGALRYMTVAGGGEIRDTIEEIDDVTMRLTYLRPLSPFPVTYYKGTVEVFKSYDGLAIVVWTIDFESEPEDAASVAELVRSAISDGIDGMERDLRGALEHHHHHH,soluble
9,MLTVDLSGKKALVMGVTNQRSLGFAIAAKLKEAGAEVALSYQAERLRPEAEKLAEALGGALLFRADVTQDEELDALFAGVKEAFGGLDYLVHAIAFAPREAMEGRYIDTRRQDWLLALEVSAYSLVAVARRAEPLLREGGGIVTLTYYASEKVVPKYNVMAIAKAALEASVRYLAYELGPKGVRVNAISAGPVRTVAARSIPGFTKMYDRVAQTAPLRRNITQEEVGNLGLFLLSPLASGITGEVVYVDAGYHIMGMELEG,soluble
10,MLVFIDDGSTNIKLQWQESDGTIKQHISPNSFKREWAVSFGDKKVFNYTLNGEQYSFDPISPDAVVTTNIAWQYSDVNVVAVHHALLTSGLPVSEVDIVCTLPLTEYYDRNNQPNTENIERKKANFRKKITLNGGDTFTIKDVKVMPESIPAGYEVLQELDELDSLLIIDLGGTTLDISQVMGKLSGISKIYGDSSLGVSLVTSAVKDALSLARTKGSSYLADDIIIHRKDNNYLKQRINDENKISIVTEAMNEALRKLEQRVLNTLNEFSGYTHVMVIGGGAELICDAVKKHTQIRDERFFKTNNSQYDLVNGMYLIGN,soluble
11,MLVGNIVKEVLAYKKGQIQQKLSSPQAFVSSRFQEKLQSEPAKETKGTTQLAKVEDMSQPVQSTKIETVVNKPEQSIHKVEEASKPEEKAETKNVDEVQVAQKEFERRFPETKNEAADTWGLTKKYNIQKIRSSNEGKYEDIIDRVSHTYGIPKTLIQKMIEVESDFNPKTVSHAGAKGLMQLMPANVKEMGIKNPFSPAESIEGGVKELSGYLKKNNGDLVLALASYNAGPGNVRKYGGVPPFKETQGYIKKILNIDVSK,not soluble
12,MLVPRGSMAPIGSVVIVGRIILSGRGGPITAYSQQTRGLLGCIITSLTGRDKNQVEGEVQVVSTATQSFLATCVNGACWTVFHGAGSKTLAGPKGPITQMYTNVDQDLVGWPAPPGARSLTPCTCGSSDLYLVTRHADVIPVRRRGDTRGSLLSPRPISYLKGSSGGPLLCPSGHVVGIFRAAVCTRGVAKAVDFIPVESMETTMR,soluble
13,MLVTKKEISVANIGEELWRFSNSSYTTGSPWTETQFAEDFAQENSEYLFLVENGQWLGYIAYHFILDEAEISHVVVNGQKQHQGIGCQLMKAFKEYVKSRDITQIFLEVRESNILAQKLYEKTGFRKVAVRKNYYKEPQENAFVMCAKLRKEAQ,not soluble
14,MLVTTTERISGQEYEIIGEVFGLTTRSKNMFKDLGAGLKSVVGGEIKGYTDMQREARDQAIERLKAEASKLGADAVVMMRFDSGTIGTDMQSVVAYGTAVKYILEHHHHHH,not soluble
15,MLWTDCLTRLRQELSDNVFAMWIRPLVAEETTDSLRLYAPNPYWTRYIQEHHLELISILVEQLSEGRIRQVEILVDSRPGAILSPAEQPATTTAALSSTPVVPQRVKKEVVEPAATQSNKILNSKKRLLNPLFTFSLFVEGRSNQMAAETCRKVLTQLGASQHNPLFLYGPTGLGKTHLMQAVGNALLQAKPNARVMYMTAESFVQDFVSSLQKGKVEEFKKNCRSLDLLLVDDIHLLAGKEASLVEFFYTFNALLDESKQIILTSDRYPKELTELDPRLVSRFSWGLSVGVEPPDIETRIEILLKKAENSGVDLPRNCALFIAQQVVANVRELEGALNKVVAIARFKGSQIDLDVVRESLKDVLAIRARTISVENIQRVVSEYFRIPLKELIGPKRTRIYARPRQLAMGLARELTGDSFPEIGMAFGGRDHSTVMHACEKVQSLKQEDPIFNEDYKNLLRLLQSLEHHHHHH,not soluble
16,MLYANKTVGNTSYKLSKKSIKEQTMLQKNKDLLIEIATRDVKSVFAYFKTTRDGLSMKEAQKRIQVYGRNELTSKRALLAEVMMKLGGMIPGFSKQRVCDELQRETITVSRVECSSSTGLNSELKMMEIPVQELVPGDMIFLSAGDAVPADVRIIYADDLLVNESVLTGNEANIEKFESCYHLERKRFIPLKRMKDYNPLELENVCFKGSHIVSGNAKAIVVSTGKNTYSGILHTCCSRTS,not soluble
17,MLYASLCRTPVFGILAQILCDIYSSIGCALSSFRSPLGPPFDFLFDTCSCQTARCFNKSKGVLITGSKLKAFRNPQPSWGFSVHKQVAALWQQLLSTGNVTRETDFFQQGGDSLLATRLTGQLHQAGYEAQLSDLFNHPRLADFAATLRKTDVPVEQPFVHSPEDRYQPFALTDVQQAYLVGRQPGFALGGVGSHFFVEFEIADLDLTRLETVWNRLIARHDMLRAVVRDGQQQVLEQTPRWVIPAHILHTPEEALQVREKLAHQVLNPEVWPVFDLQVGYVDGMPARLWLCLDNLLLDGLSMQILLAELEHGYQYPQQLPPPLPVTYRDYLQQPAIQSLNADSLAWWQAQLDDIPPAPALPLRCMPQDVETPRFARLNGALDSTRWHRLKKRAADAHLTPSAVLLSVWSTVLSAWSAQPEFTLNLTLFDRRPLHPQINQILGDFTSLMLLSWHPGESWLHSAQSLQQRLSQNLNHRDVSAIRVMRQLAQRQNVPAVPMPVVFTSALGFEQDNFLARRNLLKPVWGISQTPQVWLDHQVYESEGELRFNWDFVAALFPAGQVERQFEQYCTLLNRMTEDENSWHLPLAALVPPVKQAEQGTERTSRVCPEHSQSHIAADESTVSLICDAFREVVGESVTPAQNFFEAGATSLNLVQLHVLLQRHEFSTLTLLDLFTHPSPAALAAYLTSVATVEKTKRSRPVRRRQRRI,not soluble
18,MLYVVGIGPGNEEYFTKEAENALNSVDLIVCYTGYKKYIERFDTEIYVSGMTKEVERVEYALKEAENKNVALVSNGDATIYGLASLAYELNEKNLHNVTINVVSGL,not soluble
19,MMDEEGAALPVWSRRLQQLTERSGLSQAELARRAGMSRDTYNRYCRGLTRPPRKKVLALAELFGVETWEIDPLEAGIAALRRESERSLEALGEQPIPSTPPYTLSPPSSGDPRMMHLRVDVDVRIETALRIAELLNREGSS,not soluble
20,MMEADKKFLELVKKWGVLSVVSSWQDRLLRDICALIVECVLFDKTCAVAPAYFTLIAMNSSKFSTQQWNIFSNFLATASTQSLRHVRLLNSFFVRSSTDENGDIGDVTSYNPGKLTFRQLIAAVQVLSSQKEKSLGQKEEEDLSSGVALIMLSHGADTHRLEVHSIISSLFTHCLLLQLIASLLLSEDSNPKLKATLIGSTSPIDPKLDDSIYPILYNILNESSETSLDFDSRPAVGSLLSRMLGIKHANLLKALVSSNLTKTMSLLRRFEKTKNTELLPEIAKAVKSRSVDLKSVEFEVSTRRSAFVTREHAITQYHLVPVDNGEENAYKLVSQEFVDGALSEYDKHRDRLKPFIPDRRNPFQHAIDDSDTVSIDSKTEDFDEIRLAAYRDICLIPLRYVSDNLLREHLPDFLPPVTQIVLSSPDLAVRQLAVDFMSRLA,not soluble
21,MMEIRLTELKDLPLVMEIYDYARAFMRANGNATQWIDGYPSESFIRQEIEDGHSFVCTDEQGEILGTFCFILGEDPTYLNIYEGAWLNDEPYGVIHRMATSGKRKGVSEACLNWCFEHFENIRVDTHRDNKVMQHILAKYGFQRCGIIYVKNGTERIAYQRIL,not soluble
22,MMGNDSYSSNRGSSRDVLSFLQNFLGGFYAKYGIEVKLVGGLSLSKFYYAFDAERNQFLARHFLPVLSYIKKDFNARAALGIVNVDIYEPGFNFIFGLAHPGLKVAVVSLYRLYPEFYGNPPDRKLLKERALKEVMHELGHVFGLGHCPNPKCVMHFSNSIIDTDIKSWMYCESCLRKLEKNLARSHVLEHHHHHH,not soluble
23,MMGSSSQELQTALTDVSKTCHHLWEENKDLQGRFVNELGELQRLQMVIAQLEQQQRLENVFTVKQQMTELQKRAATLYEHLTQKRNDIVIKLNDGTNFATMLQTQLIGEKLFSWKNAQKLAQIGMPFDNREQLLDEIQIEFEFLADQNWQLNMFSCWMLDLLRRAPQLNDGLAQATIGKLTAITEQLNKLLFMLVSQSFIVSVQPEPVLKTQHKFVTEVRLLIGDKLGIRQHLVNTNVSVKIIAEDEAKQLSVDYDAHKEIRNNKTVGTISNDFEKLTMNERGHLAAKFNNSKLTRIAHRKPPPKGASDLKCAASMQAATDQKYALLFFITPFQMGNLSKEEQFDVWTLSLPIMVTVHGSQDCDAQVAILWHRAFASISRNPNTTDVTAVTWDNLAIMLRNKFSLFTGARRPLSDSDLAYLSEKMLMPNVADQKPITFHRFAKQAMRDDLPFSFWEWFFSIMQLIKQKLLKFWDEGWCIGFISKNDASQSMMMCQHSSFLLRFSDSQTGAVSIGFVCEEADGQKIPFHLAPFTIKDLDQLSLASRIASCPQLKDIRYMYPAIDKEEMLRFFESEERHRVGGGDSPTGYIQSEIVMVAKTNGNFRRMSNAPSMFGADSPSPLSVQSKLDWSPGEVHQNHMMEMSDELGQILTVSDMSGDVETLLGPAFKNNITNYNPHDGNHQHNLHFVDMSQQGMMQQHHNQFYPS,not soluble
